In patent US9701739B2, “Monoclonal antibody having immunosuppressive activity or antigen binding fragment thereof” (Josai University Corporation, priority 2010, dated 2017):

Key:
[1] = test system: histone H1, H2A, H2B, H3 or H4; assay: ELISA determination of the affinity for histone H1 and core histone; format: binding; conditions: 5 μg/mL antibody, FIGS. 2 and 3
Method: For an antigen, histone H1, which is an antigen of Reference Example 1 (16G9 mAb), and core histone H2A, H2B, H3 and H4, which are histone H1 antigen analogs, were selected.
The Affinities between histone H1 or core histone and SSVmAb were determined by ELISA.
A 96 well microplate was coated with histone H1, H2A, H2B, H3 or H4. Each histone used was dissolved in 100 mM sodium carbonate buffer (pH 9.3). The plate was washed with PBS-tween 20 (0.05%), and blocked with 3% skim milk and 1% BSA for 1 hour. To each well, 5 μg/mL SSVmAb was added, and incubated for 1 hour. Bound SSVmAb was detected using peroxidase (HRP) conjugated anti mouse IgG1Ab (SIGMA), and incubated for 1 hour. Bound SSVmAb was detected using the ABTS [2,2′-azino-bis(3-ethylbenzothiazoline-sulfonic acid)] substrate solution, and absorbance at 405 nm was measured using Multiskan Ascent (Thermo Fisher Scientific Inc., Waltham, Mass.).

[2] = test system: Spleen lymphocytes from a naive DA rat (responsive cells) with mitomycin-C treated LEW rat spleen lymphocytes; assay: Mixed lymphocyte reaction (MLR) test, BrdU incorporation; format: cell-based
Method: Spleen lymphocytes from a naive DA rat (responsive cells) and spleen lymphocytes from a LEW rat treated with mitomycin-C (Kyowa Hakko Kogyo Co., Ltd.) were used. The responsive cells were adjusted to 5×10^5 cells/mL with 10% FCS—RPMI culture medium, and the stimulated cells were adjusted to 8×10^6 cells/mL with 10% FCS—RPMI culture medium. After plating the responsive cell suspension and the stimulated cell suspension in an amount of 100 μL to a 96 well round-bottom plate (Nunc Brand Products) respectively, the monoclonal antibody 16G9 mAb of Reference Example 1 (0.1, 2, 4, or 6 μg/mL/well) or the monoclonal antibody SSVmAb of Example 1 (4 μg/mL/well) was added at the start of mixed culture, and cultured for 3.5 days or longer under the conditions of 37° C., 5% CO2/95% air. In addition, an immunosuppressive agent tacrolimus (FK506: Fujisawa Pharmaceutical Co., Ltd., 1 nM/well) was added as a positive control. Further, 10 μL bromo deoxyuridine (BrdU) was added 15 hours before the end of culture. Then the proliferation potential of the cells treated with the immunosuppressive agent was measured using BrdU labeling & detection kit III (Roche Diagnostics K.K.) using the amount of BrdU incorporated into cellular DNA as an indicator. The proliferation potential was used as an indicator for a level of immunosuppression.

CD3 positive T cells = assay: Reactivity of the monoclonal antibody with T cells by flow cytometry (FACS); format: cell-based, C57BL/6 mouse; conditions: unstimulated T cells, 10 μl of 100 μg/ml primary antibody, student t-test, FIG. 5
Method: Using the following approach, spleen was removed from a C57BL/6 mouse (5 weeks old, female, CHARLES RIVER LABORATORIES JAPAN, INC.) to prepare whole splenic cells.
First, in a 5 ml culture dish (BD Bioscience FALCON 351007) into which 5 ml RPMI 1640 culture medium (Sigma-Aldrich, R-8758) was transferred, spleen was disentangled well with scissors for dissection and forceps to suspend the splenic cells, which were then transferred to a 15 ml centrifuge tube (BD Bioscience FALCON 352096). Then, the 5 ml dish was washed several times with phosphate-buffered saline (PBS, Invitrogen, 20012-027), and these were also added to the foregoing cell suspension and allowed to stand, and then the supernatant was collected in another 15 ml centrifuge tube. In addition, 5 ml RPMI 1640 culture medium was also added to the residual insoluble spleen tissue again and allowed to stand, and then only the supernatant was collected, which was combined with the above-mentioned cell suspension to perform centrifugation at 1,500 rpm for 5 min. To the collected cells, added was 2 ml lysis buffer (150 mM NH4Cl/15 mM NaHCO3/0.1 mM EDTA-Na2, pH 7.3) and hemolyzed by tapping, and then 10 ml PBS was added. After washed 3 times by centrifugation at 1,500 rpm for 5 min, whole splenic cells were obtained. […]
The reactivity of the above unstimulated with 16G9 mAb or SSV mAb was analyzed by flow cytometry (FACS). […]

[3] = test system: T cells from a Balb/c mouse (mitochondria ATP synthase knocked down or not); assay: MLR test with T cells with or without mitochondria ATP synthase knock-down by siRNA; format: cell-based
Method: First, T cells from a Balb/c mouse having mitochondria ATP synthase knocked down were obtained using Accell siRNA kit from Thermo Fisher Scientific Inc.
Next, according to the method in Test Example 2, MLR tests were performed using Example 1 (SSV mAb) as a test substance using the T cells obtained.
In the test, Isotype IgG1 (eBioscience) was used as a control reagent. In addition, a similar test was performed using T cells from a mouse not having the ATP synthase knocked down as a control test.

B1: SSVmAb: IgG1 monoclonal antibody produced by Mouse-Mouse hybridoma SSV-C 93-3 (NITE BP-972), raised against … peptide-KLH conjugate (antibody, V domains shown)
VH: EIQLQQSGAELVKPGASVKISCKASGYSFTGYNMNWVKQSHGKSLEWIGNINPYYGSTSYNQKFKGKATLTVDKSSSTAYMQLNSLTSEDSAVYYCARSPYYSNYWRYFDYWGQGTTLTVSS
VL: QIVLSQSPAILSASPGEKVTMTCRASSSVSYMHWYQQKPGSSPKPWIYATSNLASGVPARFSGSGSGTSYSLTISRVEAEDAATYYCQQWSSNPWTFGGGTKLEIK
notes: IgG1 monoclonal antibody produced by Mouse-Mouse hybridoma SSV-C 93-3 (NITE BP-972), raised against … peptide-KLH conjugate
[1]
  affinity for histone H2A, H2B, H3 or H4 compared with affinity for histone H1 (absorbance at 405 nm): higher than the affinity for histone H1
[2]; 4 μg/mL/well, mean±S.E., cultured 3.5 days or longer, FIG. 4
  absorbance which indicates the amount of incorporated BrdU: 0.552±0.114
[2]; SSVmAb 4 μg/mL/well, 16G9 mAb 0.1, 2, 4 or 6 μg/mL/well, FK506 1 nM/well
  absorbance (incorporated BrdU) compared with reference antibody and tacrolimus: lower than that of Reference Example 1 (16G9 mAb) and tacrolimus (FK506)
[2]; same amount added (4 μg/mL/well)
  mean absorbance of Example 1 relative to that of Reference Example 1: about 41%
CD3 positive T cells
  reactivity with CD3 positive T cells: comparative reactivity
[3]; ATP synthase knocked down, FIG. 6B
  cell growth inhibition compared with Isotype IgG1: no significant difference
[3]; ATP synthase not knocked down, FIG. 6A
  cell growth inhibition compared with Isotype IgG1: significantly inhibited cell growth
